We go through 31 molecules from patent US20240000834A1, “RAS MUTANT EPITOPE PEPTIDE AND T CELL RECEPTOR RECOGNIZING RAS MUTANT” (SHANGHAI GENBASE BIOTECHNOLOGY CO., LTD., priority 2020, published 2024).

The assay addresses T1, KRAS-G12V antigen (RAS G12V-T15 peptide) (Homo sapiens, UniProt P01116, G12V).
T1 construct: endogenous in cells; host or cells: patient B13 autologous LCL cells (endogenous HLA-DP); the peptide is synthetic
Nature of the assay: TCR mutant screening in Jurkat-NFAT-Luc cells with antigen-loaded B13 LCL cells (ONE Glo Luciferase). It is filed as cell-based. The settings on record: MHC-II binding region mutants; ratio to wild-type B13.14.1 TCR; 16-24 hours. Here is the method:
According to the table below, point mutations were performed on the Vα and Vβ of B13.14.1 TCR (including CDR3 region and […]), and a lentiviral vector shuttle plasmid encoding the TCR mutant was constructed, packaged with the standard lentiviral vector in 293T cells, and B13.14.1TCR mutant were subjected to function screening.
The TCR mutant (CDR3 region) lentiviral vector was transduced into Jurkat-NFAT-Luc cell line, and B13 LCL cells loaded with KRAS-G12V antigen (RAS G12V-T15 peptide, SEQ ID NO: 5) were used as antigen-presenting cells. 2×10^4 TCR-T and 2×10^4 antigen-loaded B13 LCL cells were co-cultured for 16-24 hours, and added with ONE Glo Luciferase to detect the expression of fluorescent signal, and the TCR Mut RLU/WT RLU (ratio of RLU signal value of TCR mutant to RLU signal value of wild-type B13.14.1 TCR) was calculated.
The TCR mutant (MHC-II binding region) lentiviral vector was transduced into the Jurkat-NFAT-Luc cell line, and B13 LCL cells loaded with KRAS-G12V antigen (RAS G12V-T15 peptide, SEQ ID NO: 5) were used as the antigen-presenting cells. 2×10^4 TCR-T and 2×10^4 antigen-loaded B13 LCL cells were co-cultured for 16-24 hours, the fluorescence signal expression was detected by adding ONE Glo Luciferase, and TCR Mut RLU/WT RLU (ratio of RLU signal value of TCR mutant to RLU signal value of wild-type B13.14.1TCR) was calculated.

Numbering of substitutions follows the chain as printed.

B1: β48Y-V: B13.14.1 TCR Vβ point mutant (protein)
TCR alpha: AQSVAQPEDQVNVAEGNPLTVKCTYSVSGNPYLFWYVQYPNRGLQFLLKYITGDNLVKGSYGFEAEFNKSQTSFHLKKPSALVSDSALYFCAVRDGRGGGNKLTFGTGTQLKVEL
TCR beta: GITQSPKYLFRKEGQNVTLSCEQNLNHDAMYWYRQDPGQGLRLIYVSQIVNDFQKGDIAEGYSVSREKKESFPLTVTSAQKNPTAFYLCASSPGQRDNSPLHFGNGTRLTVT
With B1, the “TCR Mut RLU/WT RLU” value was 63.15%.

B2: β51I-D: B13.14.1 TCR Vβ point mutant (protein)
TCR alpha: B1 TCR alpha
TCR beta: B1 TCR beta with V46Y, I49D
Regarding B2, the “TCR Mut RLU/WT RLU” value was found to be 4.56%.

B3: α32Y-E: B13.14.1 TCR Vα point mutant (protein)
TCR alpha: B1 TCR alpha with Y32E
TCR beta: B1 TCR beta with V46Y
As for B3, the “TCR Mut RLU/WT RLU” value is recorded as 4.59%.

B4: β51I-T: B13.14.1 TCR Vβ point mutant (protein)
TCR alpha: B1 TCR alpha
TCR beta: B1 TCR beta with V46Y, I49T
Turning to B4, the “TCR Mut RLU/WT RLU” value is listed as 88.58%.

B5: β51I-L: B13.14.1 TCR Vβ point mutant (protein)
TCR alpha: B1 TCR alpha
TCR beta: B1 TCR beta with V46Y, I49L
Take B5: the “TCR Mut RLU/WT RLU” value is recorded as 25.46%.

B6: α32Y-I: B13.14.1 TCR Vα point mutant (protein)
TCR alpha: B1 TCR alpha with Y32I
TCR beta: B1 TCR beta with V46Y
B6: the “TCR Mut RLU/WT RLU” value stood at 4.64%.

B7: β51I-A: B13.14.1 TCR Vβ point mutant (protein)
TCR alpha: B1 TCR alpha
TCR beta: B1 TCR beta with V46Y, I49A
B7: the “TCR Mut RLU/WT RLU” value came out at 27.57%.

B8: β51I-K: B13.14.1 TCR Vβ point mutant (protein)
TCR alpha: B1 TCR alpha
TCR beta: B1 TCR beta with V46Y, I49K
B8: the “TCR Mut RLU/WT RLU” value is 3.82%.

B9: β48Y-W: B13.14.1 TCR Vβ point mutant (protein)
TCR alpha: B1 TCR alpha
TCR beta: B1 TCR beta with V46W
In the case of B9, the “TCR Mut RLU/WT RLU” value came to 32.62%.

B10: β51I-V: B13.14.1 TCR Vβ point mutant (protein)
TCR alpha: B1 TCR alpha
TCR beta: B1 TCR beta with V46Y, I49V
For B10, the “TCR Mut RLU/WT RLU” value turned out to be 35.46%.

B11: β51I-M: B13.14.1 TCR Vβ point mutant (protein)
TCR alpha: B1 TCR alpha
TCR beta: B1 TCR beta with V46Y, I49M
B11: the “TCR Mut RLU/WT RLU” value was found to be 26.84%.

B12: β51I-F: B13.14.1 TCR Vβ point mutant (protein)
TCR alpha: B1 TCR alpha
TCR beta: B1 TCR beta with V46Y, I49F
For B12, the “TCR Mut RLU/WT RLU” value is listed as 32.79%.

B13: α32Y-R: B13.14.1 TCR Vα point mutant (protein)
TCR alpha: B1 TCR alpha with Y32R
TCR beta: B1 TCR beta with V46Y
For B13, the “TCR Mut RLU/WT RLU” value is 5.60%.

B14: β51I-E: B13.14.1 TCR Vβ point mutant (protein)
TCR alpha: B1 TCR alpha
TCR beta: B1 TCR beta with V46Y, I49E
As to B14, the “TCR Mut RLU/WT RLU” value worked out at 6.28%.

B15: α32Y-T: B13.14.1 TCR Vα point mutant (protein)
TCR alpha: B1 TCR alpha with Y32T
TCR beta: B1 TCR beta with V46Y
For the molecule B15, the “TCR Mut RLU/WT RLU” value amounted to 3.77%.

B16: α32Y-S: B13.14.1 TCR Vα point mutant (protein)
TCR alpha: B1 TCR alpha with Y32S
TCR beta: B1 TCR beta with V46Y
Turning to B16, the “TCR Mut RLU/WT RLU” value is 5.77%.

B17: α32Y-H: B13.14.1 TCR Vα point mutant (protein)
TCR alpha: B1 TCR alpha with Y32H
TCR beta: B1 TCR beta with V46Y
As for B17, the “TCR Mut RLU/WT RLU” value is given as 5.60%.

B18: β51I-G: B13.14.1 TCR Vβ point mutant (protein)
TCR alpha: B1 TCR alpha
TCR beta: B1 TCR beta with V46Y, I49G
B18: the “TCR Mut RLU/WT RLU” value was determined as 5.49%.

B19: α32Y-L: B13.14.1 TCR Vα point mutant (protein)
TCR alpha: B1 TCR alpha with Y32L
TCR beta: B1 TCR beta with V46Y
Regarding B19, the “TCR Mut RLU/WT RLU” value is recorded as 6.35%.

B20: β51I-P: B13.14.1 TCR Vβ point mutant (protein)
TCR alpha: B1 TCR alpha
TCR beta: B1 TCR beta with V46Y, I49P
B20: the “TCR Mut RLU/WT RLU” value was 19.95%.

B21: β51I-Y: B13.14.1 TCR Vβ point mutant (protein)
TCR alpha: B1 TCR alpha
TCR beta: B1 TCR beta with V46Y, I49Y
With B21, the “TCR Mut RLU/WT RLU” value amounted to 19.64%.

B22: α32Y-M: B13.14.1 TCR Vα point mutant (protein)
TCR alpha: B1 TCR alpha with Y32M
TCR beta: B1 TCR beta with V46Y
On to B22, for which the “TCR Mut RLU/WT RLU” value turned out to be 4.94%.

B23: β51I-Q: B13.14.1 TCR Vβ point mutant (protein)
TCR alpha: B1 TCR alpha
TCR beta: B1 TCR beta with V46Y, I49Q
In the case of B23, the “TCR Mut RLU/WT RLU” value is on record as 12.98%.

B24: α32Y-F: B13.14.1 TCR Vα point mutant (protein)
TCR alpha: B1 TCR alpha with Y32F
TCR beta: B1 TCR beta with V46Y
With B24, the “TCR Mut RLU/WT RLU” value came out at 3.81%.

B25: β51I-R: B13.14.1 TCR Vβ point mutant (protein)
TCR alpha: B1 TCR alpha
TCR beta: B1 TCR beta with V46Y, I49R
As for B25, the “TCR Mut RLU/WT RLU” value is listed as 9.90%.

B26: β51I-W: B13.14.1 TCR Vβ point mutant (protein)
TCR alpha: B1 TCR alpha
TCR beta: B1 TCR beta with V46Y, I49W
For B26, the “TCR Mut RLU/WT RLU” value is 22.56%.

B27: α32Y-P: B13.14.1 TCR Vα point mutant (protein)
TCR alpha: B1 TCR alpha with Y32P
TCR beta: B1 TCR beta with V46Y
For B27, the “TCR Mut RLU/WT RLU” value is recorded as 3.98%.

B28: β51I-H: B13.14.1 TCR Vβ point mutant (protein)
TCR alpha: B1 TCR alpha
TCR beta: B1 TCR beta with V46Y, I49H
Take B28: the “TCR Mut RLU/WT RLU” value is 34.95%.

B29: α32Y-G: B13.14.1 TCR Vα point mutant (protein)
TCR alpha: B1 TCR alpha with Y32G
TCR beta: B1 TCR beta with V46Y
For B29, the “TCR Mut RLU/WT RLU” value is recorded as 4.03%.

B30: β51I-S: B13.14.1 TCR Vβ point mutant (protein)
TCR alpha: B1 TCR alpha
TCR beta: B1 TCR beta with V46Y, I49S
Turning to B30, the “TCR Mut RLU/WT RLU” value turned out to be 21.00%.

B31: α32Y-A: B13.14.1 TCR Vα point mutant (protein)
TCR alpha: B1 TCR alpha with Y32A
TCR beta: B1 TCR beta with V46Y
With B31, the “TCR Mut RLU/WT RLU” value worked out at 4.68%.
